Assay results: article PMC3954793, “SHP-2 Binds to Caveolin-1 and Regulates Src Activity via Competitive Inhibition of CSK in Response to H2O2 in Astrocytes” (PLoS ONE, 2014)
Ends that are not written are not given here.

Legend:
[1] = target: T1, recombinant SHP-2 protein ( (human SHP-2 cloned for the …, UniProt Q06124 1-593)); experiment: bead-based flow cytometric binding assay; caveolin-1 (1–50) peptide conjugated to carboxyl beads with EDC; incubated with recombinant CSK or SHP-2 protein (1–10 µg) for 1 h at RT; detected with anti-CSK or anti-SHP-2 and fluorescent secondary antibody; conditions: both partners purified
T1 construct: SHP-2 (PTPN11); the in-house construct holds the protein coding region of human SHP-2 in pGEX-6P-1
T1 sequence (looked up): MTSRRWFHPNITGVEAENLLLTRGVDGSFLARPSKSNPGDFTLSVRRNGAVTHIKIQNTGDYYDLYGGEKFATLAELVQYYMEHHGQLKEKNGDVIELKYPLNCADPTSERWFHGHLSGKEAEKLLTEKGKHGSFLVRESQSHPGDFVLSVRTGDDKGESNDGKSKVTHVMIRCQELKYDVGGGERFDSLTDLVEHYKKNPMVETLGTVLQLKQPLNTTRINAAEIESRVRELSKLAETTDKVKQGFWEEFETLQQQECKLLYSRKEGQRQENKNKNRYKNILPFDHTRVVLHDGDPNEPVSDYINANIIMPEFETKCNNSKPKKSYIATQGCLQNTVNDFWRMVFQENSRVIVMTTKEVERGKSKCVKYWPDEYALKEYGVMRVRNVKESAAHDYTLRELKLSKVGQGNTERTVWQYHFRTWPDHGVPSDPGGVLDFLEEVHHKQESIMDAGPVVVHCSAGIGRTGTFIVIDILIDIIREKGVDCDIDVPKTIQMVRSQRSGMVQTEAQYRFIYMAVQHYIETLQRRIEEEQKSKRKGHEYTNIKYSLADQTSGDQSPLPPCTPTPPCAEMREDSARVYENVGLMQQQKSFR

recombinant CSK protein = target: T2, recombinant CSK protein ( (human CSK cloned for the …, UniProt P41240 1-450)); experiment: as above; conditions: both partners purified
T2 construct: CSK; the in-house construct holds the protein coding region of human CSK in pGEX-6P-1

binding result [1]: binds
binding result (recombinant CSK protein): binds
B1: 1–50 mer caveolin-1 peptide (peptide, UniProt Q03135 1-50, looked up)
peptide: MSGGKYVDSEGHLYTVPIREQGNIYKPNNKAMADELSEKQVYDAHTKEID
modifications: not fully specified
notes: caveolin-1 residues 1-50, fifty-amino acid-long synthetic peptide; Conjugated to carboxyl beads with EDC; also called caveolin-1 peptide (1–50); p-caveolin-1 peptide; source: synthetic peptide (PEPTRON)
